Experimental data published in PMC3335157.

Key:
[1] = target: Full-length αvβ3 integrin (UniProt P06756)
[2] = target: Full-length αvβ3 integrin (UniProt P06756); experiment: SPR; BIAcore T100; αvβ3 integrin immobilised via primary amines on a CM5 chip (1341-2655 RU); NC1 α4(IV) injected at several concentrations and flow rates; 25°C; 10 mM Hepes pH 7.4, 150 mM NaCl, 1 mM MgCl2, 2 mM MnCl2, 50 mM β-octyl-D-glucopyranoside; global fit, two-state model

Chain of UniProt P06756 (P06756 31-1048, chain 1 of 2): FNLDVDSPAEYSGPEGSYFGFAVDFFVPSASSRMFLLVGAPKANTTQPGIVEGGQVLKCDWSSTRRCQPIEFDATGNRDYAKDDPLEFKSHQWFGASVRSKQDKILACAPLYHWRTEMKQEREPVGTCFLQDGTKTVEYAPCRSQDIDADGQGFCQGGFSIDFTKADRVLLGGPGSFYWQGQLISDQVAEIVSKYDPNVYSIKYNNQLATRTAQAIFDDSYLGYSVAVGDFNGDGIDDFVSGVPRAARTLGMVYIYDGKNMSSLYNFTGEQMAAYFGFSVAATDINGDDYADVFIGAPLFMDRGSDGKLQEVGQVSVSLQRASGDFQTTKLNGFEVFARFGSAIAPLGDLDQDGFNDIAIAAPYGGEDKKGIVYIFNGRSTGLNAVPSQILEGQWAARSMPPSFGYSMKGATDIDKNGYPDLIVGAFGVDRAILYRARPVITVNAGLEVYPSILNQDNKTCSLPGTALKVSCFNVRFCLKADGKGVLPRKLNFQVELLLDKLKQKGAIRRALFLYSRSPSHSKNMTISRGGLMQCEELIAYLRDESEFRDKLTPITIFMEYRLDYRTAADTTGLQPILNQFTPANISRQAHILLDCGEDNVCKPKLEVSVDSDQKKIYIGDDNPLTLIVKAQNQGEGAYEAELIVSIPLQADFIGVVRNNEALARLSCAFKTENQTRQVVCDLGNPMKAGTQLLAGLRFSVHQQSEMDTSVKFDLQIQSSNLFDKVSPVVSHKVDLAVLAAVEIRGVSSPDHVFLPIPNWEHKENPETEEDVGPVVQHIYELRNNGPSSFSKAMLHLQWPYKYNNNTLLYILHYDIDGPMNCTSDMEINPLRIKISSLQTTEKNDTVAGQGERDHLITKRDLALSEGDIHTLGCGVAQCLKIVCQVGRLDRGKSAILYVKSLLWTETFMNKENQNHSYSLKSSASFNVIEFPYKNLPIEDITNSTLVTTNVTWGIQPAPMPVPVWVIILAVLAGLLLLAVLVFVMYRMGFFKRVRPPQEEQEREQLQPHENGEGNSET
Chain of UniProt P06756 (P05106 27-788, chain 2 of 2, further chain): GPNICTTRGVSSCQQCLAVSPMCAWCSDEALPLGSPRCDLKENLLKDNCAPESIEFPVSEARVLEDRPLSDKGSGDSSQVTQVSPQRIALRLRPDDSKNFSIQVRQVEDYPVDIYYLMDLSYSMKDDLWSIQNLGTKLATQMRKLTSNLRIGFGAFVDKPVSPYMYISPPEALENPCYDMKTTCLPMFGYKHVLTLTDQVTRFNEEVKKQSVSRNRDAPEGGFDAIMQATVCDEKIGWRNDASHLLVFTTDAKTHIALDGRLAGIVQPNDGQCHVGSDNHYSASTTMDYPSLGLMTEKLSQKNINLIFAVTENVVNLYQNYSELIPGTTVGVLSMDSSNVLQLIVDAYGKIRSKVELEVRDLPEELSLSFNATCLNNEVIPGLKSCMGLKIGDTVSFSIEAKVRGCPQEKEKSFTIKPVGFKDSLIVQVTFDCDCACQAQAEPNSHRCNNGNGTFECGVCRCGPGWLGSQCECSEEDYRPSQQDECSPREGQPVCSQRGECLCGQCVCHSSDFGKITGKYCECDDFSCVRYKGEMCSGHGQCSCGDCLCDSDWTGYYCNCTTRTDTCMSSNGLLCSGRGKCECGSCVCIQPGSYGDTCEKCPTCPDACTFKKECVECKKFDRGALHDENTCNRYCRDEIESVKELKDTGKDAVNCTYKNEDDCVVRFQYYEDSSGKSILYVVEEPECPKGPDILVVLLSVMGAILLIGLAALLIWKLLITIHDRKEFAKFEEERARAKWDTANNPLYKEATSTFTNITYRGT

Substance: Recombinant human NC1 α4(IV) domain (NC1[α4(IV)1-229]) (domain or fragment)
- adhesion of UACC-903 melanoma cells on recombinant NC1 α4(IV) substratum; change after preincubation of the cells with an anti-αvβ3 integrin blocking antibody (10 µg/mL); irrelevant IgG had no effect [1]: -38%
- Kd [2]: 148 nM
